Measured values taken from US20030013173A1.

Key:
[1] = target: soluble β4Gal-T2 (amino acid residues 31-372 of human UDP-galactose: β-N-acetylglucosamine β-1,4-galactosyltransferase, β4Gal-T2) (human) (UniProt O60909); experiment: cell-based or functional assay
[2] = target: Bovine milk β1,4Gal-transferase (Sigma), mainly representing β4Gal-T1 (bovine) (UniProt P08037); experiment: cell-based or functional assay
Sequence of Bovine milk β1,4Gal-transferase (Sigma), mainly representing β4Gal-T1 (bovine) (P08037 78-402 limits assumed): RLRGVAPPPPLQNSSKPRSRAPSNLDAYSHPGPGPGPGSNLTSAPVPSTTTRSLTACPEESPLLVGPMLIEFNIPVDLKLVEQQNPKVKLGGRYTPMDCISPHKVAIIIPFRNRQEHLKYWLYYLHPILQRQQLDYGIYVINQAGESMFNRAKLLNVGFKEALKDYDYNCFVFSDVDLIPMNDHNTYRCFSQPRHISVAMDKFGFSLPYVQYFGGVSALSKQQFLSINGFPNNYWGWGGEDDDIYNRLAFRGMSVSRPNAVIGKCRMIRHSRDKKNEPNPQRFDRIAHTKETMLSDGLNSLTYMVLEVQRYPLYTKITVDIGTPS

Sequence of soluble β4Gal-T2 (amino acid residues 31-372 of human UDP-galactose: β-N-acetylglucosamine β-1,4-galactosyltransferase, β4Gal-T2) (human) (O60909 31-372): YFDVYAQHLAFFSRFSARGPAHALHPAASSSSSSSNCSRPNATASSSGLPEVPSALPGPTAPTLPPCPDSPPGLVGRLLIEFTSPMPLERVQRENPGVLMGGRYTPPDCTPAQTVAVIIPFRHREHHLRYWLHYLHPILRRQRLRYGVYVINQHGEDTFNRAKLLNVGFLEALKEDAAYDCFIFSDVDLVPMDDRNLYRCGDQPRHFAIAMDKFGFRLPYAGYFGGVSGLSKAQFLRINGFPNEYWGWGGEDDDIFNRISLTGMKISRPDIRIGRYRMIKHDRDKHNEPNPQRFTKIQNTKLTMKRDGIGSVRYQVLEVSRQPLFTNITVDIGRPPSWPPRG

concentration of a-lactalbumin to achieve maximum activity with Glc [1]: 0.4 mg/mL | concentration of a-lactalbumin to achieve maximum activity with Glc [2]: 0.1 mg/mL
Substance: α-lactalbumin
